Experimental data: patent US20040157314A1, “Inhibitors of Staphylococcus aureus primary sigma factor and uses thereof” (priority 2003, published 2004)

Tests used:
[1] = target: E. coli holoenzyme (E. coli sigma factor and E. coli core RNA polymerase) (Escherichia coli, UniProt P00579); details: pre-incubation with E. coli holoenzyme, FIG. 6C
Procedure: (§1) The E. coli holoenzyme (Epicentre) was used at 10 nM as a positive control for monitoring transcription efficiency. Assays were done with increasing amounts (0 to 500 nM) of STAAU_R12 and 25 nM of E. coli core in a total volume of 25 μl containing 40 mM Tris-acetate pH 7.9, 100 mM NaCl, 5 mM MgCl2, 1 mM DTT, 0.1 mg/ml BSA, 0.5 mM of each ATP, GTP, CTP, 0.25 mM UTP, 5 μCi [^32P] UTP (3000 Ci/mmole), 2 units of RNasin (Promega) and 40 ng of pB6 template DNA (Lutz and Bujard, Nuc. Acid Res. (1997) 6:1203-10) harboring λPL promoter, kanamycin gene and the Col E1 RNA-1. […] Reactions were incubated at 37° C. for 15 min and stopped by addition of 5 μl of loading buffer (95% formamide, 20 mM EDTA and 0.05% of each xylene cyanol and bromophenol blue). Samples were boiled for 5 min and electrophoresed on a 6% polyacrylamide/8 M urea gel.

[2] = target: T1, reconstituted holoenzyme from HK-STAAU_R12 and S. aureus core enzyme (Staphylococcus aureus, UniProt P0A0J0); assay: In vitro transcription and TCA precipitation assay, 96-well; format: biochemical; details: 10 μM, FIG. 8
T1 construct: made in house; S. aureus RN4220 transformed with pTMHB rpoA (core enzyme)
T1 sequence (P0A0J0 whole entry): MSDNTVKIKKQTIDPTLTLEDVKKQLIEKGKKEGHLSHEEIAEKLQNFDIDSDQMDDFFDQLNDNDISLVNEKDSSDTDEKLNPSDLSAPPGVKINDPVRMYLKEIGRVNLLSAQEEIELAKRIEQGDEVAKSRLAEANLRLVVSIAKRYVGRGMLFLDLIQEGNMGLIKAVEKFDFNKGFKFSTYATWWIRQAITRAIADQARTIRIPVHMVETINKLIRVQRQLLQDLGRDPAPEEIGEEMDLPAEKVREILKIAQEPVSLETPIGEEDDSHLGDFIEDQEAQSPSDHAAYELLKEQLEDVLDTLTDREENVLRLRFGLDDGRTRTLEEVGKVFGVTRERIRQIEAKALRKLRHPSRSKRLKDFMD
From the text: In order to convert this gel-based transcription assay to a 96-well high through put format, we used an in vitro transcription assay followed by a TCA precipitation step in order to separate radiolabeled nucleotides incorporated into nucleic acid from unincorporated label. Such format is convenient as it will allow rapid screening with a large collection of compounds. In this TCA precipitation assay, we reconstituted the holoenzyme from STAAU_R12 and S. aureus core enzyme instead of using the E. coli core enzyme with STAAU_R12.
The E. coli core enzyme (Epicentre) was used as a positive control for monitoring transcription efficiency. The set up of high throughput screening assay for STAAU_R12 is illustrated in FIG. 7. […] UTP (3000 Ci/mmole), 1 U of RNasin (Promega) and 40 ng of pTMSM template DNA (a pTM derivative vector). To investigate the in vitroeffectofG1ORF67 on STAAU_R12 mediated transcriptional activation, G1ORF67 and a negative control (10 μM) were added to the mixture and the reaction was incubated for 1 h at 37° C. in a 96-well PCR-plate (BD-Falcon™). […] After filtration, the wells were washed 3 times (225 μl per wash) with 10% TCA, 2 times (225 μl per wash) with 95% ethanol and then 75 μl of liquid scintillation cocktail was added and the plates were counted for 30 s on a Trilux™ Microbeta counter (Perkin Elmer-Packard).

[3] = target: STAAU_R12 with E. coli core and biotinylated λPR oligonucleotide (Staphylococcus aureus, UniProt P0A0J0); format: biochemical; details: 0 to 4 μM; 32 nM HK-STAAU_R12, 45 nM biotinylated DNA
STAAU_R12 with E. coli core and biotinylated λPR oligonucleotide, sequence (P0A0J0 whole entry): as above
Procedure: We developed a fluorescence-based high throughput assay to monitor the interaction of STAAU_R12 with its cognate DNA. […] Europium cryptate (Eu) labeled anti-Histidine was used as an energy donor and Allophycocyanin (APC) labeled streptavidin was used as an energy acceptor.
The reaction was incubated for 15 min at room temperature and then, 6 μl of a mixture of Eu-conjugated anti-Histidine (CIS International) and APC-conjugated streptavidin (Prozyme) were added to final concentrations of 3 and 15 nM, respectively. Samples were mixed and 25 μl of the mixture was transferred to a 96-well opaque plate (Molecular Devices). After 45 min incubation at room temperature, the emission at 665 nm (APC) and at 612 nm (Eu) arising from excitation as 340 nm was measured using a Tecan Ultra™ plate reader. […] A mutated version of untagged λPR oligonucleotide consisting of a substitution of the −35 region (from TTGACT in the wild type PR oligonucleotide to ACTTTG in the mutated oligonucleotide) was used as a non specific competitor. Competitors were added to the reaction mixture prior to addition of Eu and APC conjugates.

[4] = target: holoenzyme reconstituted from STAAU_R12 and E. coli core RNA polymerase (Staphylococcus aureus, UniProt P0A0J0); assay: In vitro transcription assay (polyacrylamide/urea gel), reconstituted holoenzyme; format: biochemical; details: pre-incubation with STAAU_R12, 0 to 2 μM, FIG. 6B
holoenzyme reconstituted from STAAU_R12 and E. coli core RNA polymerase, sequence (P0A0J0 whole entry): as above
Procedure: as §1

[5] = test system: S. aureus RN4220; assay: Growth kinetics assay (CFU) of S. aureus clones expressing phage ORF under arsenite-inducible promoter; format: cell-based, Staphylococcus aureus
From the text: Bacteriophage ORFs encoded in phage G1 genome were identified as follows: beginning at the first nucleotide, the phage G 1 genome sequence is scanned for a start codon. When one is identified, the number of in-frame codons is counted until a termination codon is reached. A minimum threshold of 33 codons defines this bounded sequence as an ORF. This procedure is repeated, starting at the next nucleotide following the last stop codon, until the end of the phage sequence is reached. The scan is performed in an identical manner on all three reading frames of both DNA strands of the phage sequence, in order to identify all the putative ORFs. Putative genes are then identified based on the presence of a Shine-Dalgarno sequence within the 15 nucleotides upstream of the start codon. The E. coli-S. aureus shuttle vector pTOO21 (Tauriainen et al., Appl. Environ. Microbiol. (1997) 63:4456-64), containing the arsenite-inducible ars promoter and the arsR gene, was modified with an optimal Shine-Dalgarno sequence (AGGAGG) followed by a multiple cloning site (MCS). DNA encoding individual phage ORFs was amplified by PCR from phage genomic DNA and cloned into the MCS of the modified vector. […]

E. coli holoenzyme (E. coli sigma factor and E. coli core RNA polymerase), sequence (P0A8V2 whole entry): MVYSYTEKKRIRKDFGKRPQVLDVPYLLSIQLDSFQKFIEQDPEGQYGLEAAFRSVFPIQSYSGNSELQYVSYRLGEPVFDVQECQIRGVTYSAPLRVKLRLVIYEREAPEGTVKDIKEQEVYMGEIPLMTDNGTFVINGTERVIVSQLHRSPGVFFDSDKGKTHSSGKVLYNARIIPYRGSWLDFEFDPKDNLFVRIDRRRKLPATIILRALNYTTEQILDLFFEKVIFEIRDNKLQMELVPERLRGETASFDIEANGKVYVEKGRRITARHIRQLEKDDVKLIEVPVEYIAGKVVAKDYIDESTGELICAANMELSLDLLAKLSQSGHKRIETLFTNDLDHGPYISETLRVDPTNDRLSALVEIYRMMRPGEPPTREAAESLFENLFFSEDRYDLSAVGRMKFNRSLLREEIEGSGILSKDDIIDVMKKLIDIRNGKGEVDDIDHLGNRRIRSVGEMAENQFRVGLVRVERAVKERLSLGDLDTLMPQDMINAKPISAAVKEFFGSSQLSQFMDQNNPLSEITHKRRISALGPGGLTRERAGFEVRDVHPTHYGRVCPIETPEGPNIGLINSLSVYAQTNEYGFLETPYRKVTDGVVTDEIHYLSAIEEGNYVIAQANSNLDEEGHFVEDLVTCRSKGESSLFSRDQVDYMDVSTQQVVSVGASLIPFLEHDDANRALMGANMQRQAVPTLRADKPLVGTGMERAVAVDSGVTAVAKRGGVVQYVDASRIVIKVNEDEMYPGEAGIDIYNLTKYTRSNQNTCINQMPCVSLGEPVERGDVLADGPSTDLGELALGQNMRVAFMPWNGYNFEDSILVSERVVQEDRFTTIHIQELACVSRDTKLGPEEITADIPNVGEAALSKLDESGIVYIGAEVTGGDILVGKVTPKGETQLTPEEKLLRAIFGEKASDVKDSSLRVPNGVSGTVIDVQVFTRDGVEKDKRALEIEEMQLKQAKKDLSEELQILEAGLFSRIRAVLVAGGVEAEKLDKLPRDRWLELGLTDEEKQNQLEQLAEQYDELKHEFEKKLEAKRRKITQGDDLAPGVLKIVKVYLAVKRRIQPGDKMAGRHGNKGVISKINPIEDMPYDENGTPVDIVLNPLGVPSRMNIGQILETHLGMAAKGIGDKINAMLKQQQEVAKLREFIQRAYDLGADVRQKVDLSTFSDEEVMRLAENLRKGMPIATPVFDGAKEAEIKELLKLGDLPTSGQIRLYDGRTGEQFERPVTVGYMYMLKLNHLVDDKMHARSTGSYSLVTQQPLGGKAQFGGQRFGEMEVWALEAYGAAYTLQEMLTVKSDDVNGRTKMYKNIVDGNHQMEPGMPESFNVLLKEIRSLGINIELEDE
E. coli holoenzyme (E. coli sigma factor and E. coli core RNA polymerase), sequence (P00579 whole entry): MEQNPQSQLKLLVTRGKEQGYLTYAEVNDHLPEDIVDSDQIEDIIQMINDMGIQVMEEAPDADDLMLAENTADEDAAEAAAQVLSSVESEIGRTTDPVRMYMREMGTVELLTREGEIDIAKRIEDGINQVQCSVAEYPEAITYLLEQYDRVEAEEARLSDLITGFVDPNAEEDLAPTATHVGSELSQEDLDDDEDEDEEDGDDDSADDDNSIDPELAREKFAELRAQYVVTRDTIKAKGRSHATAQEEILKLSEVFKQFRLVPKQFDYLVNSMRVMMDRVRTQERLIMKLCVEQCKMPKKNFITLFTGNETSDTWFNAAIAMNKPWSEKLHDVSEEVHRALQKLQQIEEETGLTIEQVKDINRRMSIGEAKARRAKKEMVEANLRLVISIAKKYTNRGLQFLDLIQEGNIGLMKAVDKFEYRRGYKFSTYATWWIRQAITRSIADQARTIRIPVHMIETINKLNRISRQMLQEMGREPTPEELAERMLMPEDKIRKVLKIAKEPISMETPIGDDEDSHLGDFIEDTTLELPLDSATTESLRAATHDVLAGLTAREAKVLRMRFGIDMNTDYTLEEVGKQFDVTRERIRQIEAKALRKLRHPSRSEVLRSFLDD
E. coli holoenzyme (E. coli sigma factor and E. coli core RNA polymerase), sequence (P0A7Z4 whole entry, further chain): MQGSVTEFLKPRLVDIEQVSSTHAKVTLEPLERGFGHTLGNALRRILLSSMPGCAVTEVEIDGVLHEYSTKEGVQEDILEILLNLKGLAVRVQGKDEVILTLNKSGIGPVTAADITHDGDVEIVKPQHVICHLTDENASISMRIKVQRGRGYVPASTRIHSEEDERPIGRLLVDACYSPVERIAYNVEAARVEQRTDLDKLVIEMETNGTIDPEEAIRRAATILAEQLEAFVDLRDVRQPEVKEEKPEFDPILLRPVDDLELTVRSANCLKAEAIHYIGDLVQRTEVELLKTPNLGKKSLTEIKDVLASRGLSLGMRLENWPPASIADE
E. coli holoenzyme (E. coli sigma factor and E. coli core RNA polymerase), sequence (P0A8T7 whole entry, further chain): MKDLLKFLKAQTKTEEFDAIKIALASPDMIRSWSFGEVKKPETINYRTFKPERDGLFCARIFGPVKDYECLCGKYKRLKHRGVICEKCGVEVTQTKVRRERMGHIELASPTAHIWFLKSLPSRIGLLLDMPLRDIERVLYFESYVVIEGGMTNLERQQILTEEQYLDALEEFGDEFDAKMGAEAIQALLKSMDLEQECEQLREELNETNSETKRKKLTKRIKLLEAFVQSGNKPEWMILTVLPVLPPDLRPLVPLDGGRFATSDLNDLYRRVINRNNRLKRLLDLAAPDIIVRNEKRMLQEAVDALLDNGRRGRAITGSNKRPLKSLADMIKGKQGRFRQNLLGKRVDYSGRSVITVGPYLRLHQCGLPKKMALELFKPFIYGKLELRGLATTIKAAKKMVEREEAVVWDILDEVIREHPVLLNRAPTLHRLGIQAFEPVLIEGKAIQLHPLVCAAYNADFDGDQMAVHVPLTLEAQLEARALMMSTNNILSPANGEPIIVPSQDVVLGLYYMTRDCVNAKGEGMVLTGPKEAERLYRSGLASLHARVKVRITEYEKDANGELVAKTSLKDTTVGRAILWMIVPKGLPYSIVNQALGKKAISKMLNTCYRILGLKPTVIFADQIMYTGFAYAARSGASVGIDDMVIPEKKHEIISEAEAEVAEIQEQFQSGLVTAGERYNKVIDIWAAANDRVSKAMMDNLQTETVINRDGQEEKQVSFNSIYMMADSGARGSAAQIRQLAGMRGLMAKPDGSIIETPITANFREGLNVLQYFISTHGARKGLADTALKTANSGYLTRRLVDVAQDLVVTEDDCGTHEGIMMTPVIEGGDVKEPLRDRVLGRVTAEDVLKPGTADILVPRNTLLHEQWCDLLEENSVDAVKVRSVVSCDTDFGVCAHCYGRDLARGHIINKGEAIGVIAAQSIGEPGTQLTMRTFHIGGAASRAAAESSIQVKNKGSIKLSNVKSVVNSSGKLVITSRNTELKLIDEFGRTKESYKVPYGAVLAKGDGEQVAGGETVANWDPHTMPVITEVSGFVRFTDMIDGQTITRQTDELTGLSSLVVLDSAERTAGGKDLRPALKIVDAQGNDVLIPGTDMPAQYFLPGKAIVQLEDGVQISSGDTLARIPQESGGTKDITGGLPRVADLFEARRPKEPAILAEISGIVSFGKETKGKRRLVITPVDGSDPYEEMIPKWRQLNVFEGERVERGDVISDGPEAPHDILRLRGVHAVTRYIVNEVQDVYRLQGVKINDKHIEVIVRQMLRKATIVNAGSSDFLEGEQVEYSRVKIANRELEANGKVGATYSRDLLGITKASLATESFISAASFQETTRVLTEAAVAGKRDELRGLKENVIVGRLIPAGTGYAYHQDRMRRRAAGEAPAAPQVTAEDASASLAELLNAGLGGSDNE

B1: G1ORF67: 198 amino acids protein from S. aureus bacteriophage G1 (SEQ ID NO: 7), anti-primary sigma factor (protein)
chain: MKLKILDKDNATLNVFHRNKEHKTIDNVPTANLVDWYPLSNAYEYKLSRNGEYLELKRLRSTLPSSYGLDDNNQDIIRDNNHRCKIGYWYNPAVRKDNLKIIEKAKQYGLPIITEEYDANTVEQGFRDIGVIFQSLKTIVVTRYLEGKTEEELRIFNMKSEESQLNEALKESDFSVDLTYSDLGQIYNMLLLMKKISK
modifications: Bacteriophage G1
- effect on transcription by E. coli holoenzyme [1]: did not affect transcription
- inhibition of STAAU_R12 mediated transcriptional activation (TCA precipitation) [2]: dramatic inhibition
- reduction of the TR-FRET signal (core-dependent DNA binding of STAAU_R12) [3]: 7 fold
- inhibition of STAAU_R12-mediated transcriptional activation [4]: dramatic inhibition
- number of CFU in cells expressing the ORF ([5]; S. aureus RN4220, induced with 5 μM NaAsO2, FIG. 1): significantly reduced
- type of growth inhibitory effect on S. aureus ([5]; expression of the ORF in S. aureus): bacteriostatic
